From publication PMC5070911 (Clinical Immunology (Orlando, Fla.), 2016)

Biological target: T1, recombinant form of the extracellular domain of HER2 (amino acids 23-652) (UniProt P04626 23-652)
T1 construct: HER2 (neu/ErbB2), extracellular domain, amino acids 23-652; Bought recombinant protein; also called rHER2; neu; source: bought: e-bioscience, UK
Assay: SPR; competitive binding: fixed rHER2 concentration incubated 1 h with 5-, 50- and 500-fold excess of Herceptin, flowed over immobilised EPO
Settings: both partners purified

B1: Eosinophil Peroxidase (EPO) (enzyme)
chain 1: not shown
chain 2: VDCERTCAQLPPCFPIKIPPNDPRIKNQRDCIPFFRSAPSCPQNKNRVRNQINALTSFVDASMVYGSEVSLSLRLRNRTNYLGLLAINQRFQDNGRALLPFDNLHDDPCLLTNRSARIPCFLAGDTRSTETPKLAAMHTLFMREHNRLATELRRLNPRWNGDKLYNEARKIMGAMVQIITYRDFLPLVLGKARARRTLGHYRGYCSNVDPRVANVFTLAFRFGHTMLQPFMFRLDSQYRASAPNSHVPLSSAFFASWRIVYEGGIDPILRGLMATPAKLNRQDAMLVDELRDRLFRQVRRIGLDLAALNMQRSRDHGLPGYNAWRRFCGLSQPRNLAQLSRVLKNQDLARKFLNLYGTPDNIDIWIGAIAEPLLPGARVGPLLACLFENQFRRARDGDRFWWQKRGVFTKRQRKALSRISLSRIICDNTGITTVSRDIFRANIYPRGFVNCSRIPRLNLSAWRGT
notes: Eosinophil peroxidase, human, light chain of the mature enzyme; Eosinophil peroxidase, human, heavy chain of the mature enzyme; Native granule protein; source: purified from eosinophils of patients with marked eosinophilia (0.01 M HCl extraction, Sephadex G-50)
  binding result: binds
